Data published in paper doi:10.1101/2024.03.12.584565 (bioRxiv, 2024).
Changes are numbered by the printed parent chain. One block for each binder: values may come before it.

Assays:
His6-SUMO3-sororin = His6-SUMO3-sororin (human, UniProt Q96FF9 1-252); test: pull-down
recombinant human Wapl = biological target: T1, recombinant human Wapl (human, UniProt Q7Z5K2 1-1190); test: pull-down
T1 sequence: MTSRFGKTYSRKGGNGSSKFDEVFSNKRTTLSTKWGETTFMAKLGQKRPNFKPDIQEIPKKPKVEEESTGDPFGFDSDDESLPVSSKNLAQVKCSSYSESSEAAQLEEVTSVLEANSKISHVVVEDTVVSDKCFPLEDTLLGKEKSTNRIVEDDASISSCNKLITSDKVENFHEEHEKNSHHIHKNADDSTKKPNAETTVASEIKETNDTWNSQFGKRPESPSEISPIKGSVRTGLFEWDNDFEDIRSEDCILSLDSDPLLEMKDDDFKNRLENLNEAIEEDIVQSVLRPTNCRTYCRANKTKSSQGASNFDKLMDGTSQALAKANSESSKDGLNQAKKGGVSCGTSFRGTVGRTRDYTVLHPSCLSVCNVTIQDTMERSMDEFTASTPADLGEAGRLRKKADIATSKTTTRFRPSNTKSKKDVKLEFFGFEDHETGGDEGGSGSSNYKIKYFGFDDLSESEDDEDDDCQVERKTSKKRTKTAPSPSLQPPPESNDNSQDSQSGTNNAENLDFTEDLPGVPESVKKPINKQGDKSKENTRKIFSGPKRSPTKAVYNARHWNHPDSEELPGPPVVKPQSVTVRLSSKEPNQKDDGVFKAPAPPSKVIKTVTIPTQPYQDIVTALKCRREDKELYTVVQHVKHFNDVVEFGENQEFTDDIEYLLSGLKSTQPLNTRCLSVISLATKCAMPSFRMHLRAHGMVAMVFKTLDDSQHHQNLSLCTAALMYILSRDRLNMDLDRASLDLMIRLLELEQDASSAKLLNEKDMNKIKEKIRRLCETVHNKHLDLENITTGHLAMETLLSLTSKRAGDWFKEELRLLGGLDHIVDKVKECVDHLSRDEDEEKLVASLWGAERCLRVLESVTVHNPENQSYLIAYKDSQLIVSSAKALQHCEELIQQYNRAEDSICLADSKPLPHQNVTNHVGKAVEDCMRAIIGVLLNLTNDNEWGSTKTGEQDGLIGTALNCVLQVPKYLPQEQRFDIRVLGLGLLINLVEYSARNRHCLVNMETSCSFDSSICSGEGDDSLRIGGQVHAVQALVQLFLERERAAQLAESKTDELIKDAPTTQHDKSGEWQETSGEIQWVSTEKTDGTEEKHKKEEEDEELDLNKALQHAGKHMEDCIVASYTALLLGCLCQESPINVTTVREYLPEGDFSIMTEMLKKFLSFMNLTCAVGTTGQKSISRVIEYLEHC

Chain of His6-SUMO3-sororin (Q96FF9 whole entry): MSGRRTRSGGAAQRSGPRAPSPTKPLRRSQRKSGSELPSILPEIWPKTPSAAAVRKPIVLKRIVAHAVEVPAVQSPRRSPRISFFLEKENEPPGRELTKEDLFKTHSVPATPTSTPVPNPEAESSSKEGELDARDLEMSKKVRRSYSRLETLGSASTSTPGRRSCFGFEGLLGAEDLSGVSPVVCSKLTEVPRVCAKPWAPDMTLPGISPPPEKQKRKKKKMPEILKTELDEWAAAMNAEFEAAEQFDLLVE

- binding result (His6-SUMO3-sororin): binds
B1: Flag-tagged Pds5b-Ser1177,1182,1209Ala (3A), untreated or exposed to Nek2a (natural protein)
chain: MAHSKTRTNDGKITYPPGVKEISDKISKEEMVRRLKMVVKTFMDMDQDSEEEKELYLNLALHLASDFFLKHPDKDVRLLVACCLADIFRIYAPEAPYTSPDKLKDIFMFITRQLKGLEDTKSPQFNRYFYLLENIAWVKSYNICFELEDSNEIFTQLYRTLFSVINNGHNQKVHMHMVDLMSSIICEGDTVSQELLDTVLVNLVPAHKNLNKQAYDLAKALLKRTAQAIEPYITNFFNQVLMLGKTSISDLSEHVFDLILELYNIDSHLLLSVLPQLEFKLKSNDNEERLQVVKLLAKMFGAKDSELASQNKPLWQCYLGRFNDIHVPIRLECVKFASHCLMNHPDLAKDLTEYLKVRSHDPEEAIRHDVIVSIVTAAKKDILLVNDHLLNFVRERTLDKRWRVRKEAMMGLAQIYKKYALQSAAGKDAAKQIAWIKDKLLHIYYQNSIDDRLLVERIFAQYMVPHNLETTERMKCLYYLYATLDLNAVKALNEMWKCQNLLRHQVKDLLDLIKQPKTDASVKAIFSKVMVITRNLPDPGKAQDFMKKFTQVLEDDEKIRKQLEVLVSPTCSCKQAEGCVREITKKLGNPKQPTNPFLEMIKFLLERIAPVHIDTESISALIKQVNKSIDGTADDEDEGVPTDQAIRAGLELLKVLSFTHPISFHSAETFESLLACLKMDDEKVAEAALQIFKNTGSKIEEDFPHIRSALLPVLHHKSKKGPPRQAKYAIHCIHAIFSSKETQFAQIFEPLHKSLDPSNLEHLITPLVTIGHIALLAPDQFAAPLKSLVATFIVKDLLMNDRLPGKKTTKLWVPDEEVSPETMVKIQAIKMMVRWLLGMKNNHSKSGTSTLRLLTTILHSDGDLTEQGKISKPDMSRLRLAAGSAIVKLAQEPCYHEIITLEQYQLCALAINDECYQVRQVFAQKLHKGLSRLRLPLEYMAICALCAKDPVKERRAHARQCLVKNINVRREYLKQHAAVSEKLLSLLPEYVVPYTIHLLAHDPDYVKVQDIEQLKDVKECLWFVLEILMAKNENNSHAFIRKMVENIKQTKDAQGPDDAKMNEKLYTVCDVAMNIIMSKSTTYSLESPKDPVLPARFFTQPDKNFSNTKNYLPPEMKSFFTPGKPKTTNVLGAVNKPLSSAGKQSQTKSSRMETVSNASSSSNPSSPGRIKGRLDSAEMDHAENEDYTMSSPLPGKKSDKRDDSDLVRAELEKPRGRKKTPVTEQEEKLGMDDLTKLVQEQKPKGSQRSRKRGHTASESDEQQWPEEKRLKEDILENEDEQNSPPKKGKRGRPPKPLGGGTPKEEPTMKTSKKGSKKKSGPPAPEEEEEEERQSGNTEQKSKSKQHRVSRRAQQRAESPESSAIESTQSTPQKGRGRPSKTPSPSQPKKNVRVGRSKQAATKENDSSEEVDVFQGSSPVDDIPQEETEEEEVSTVNVRRRSAKRERR

- binding result (recombinant human Wapl): binds
B2: Flag-tagged Pds5b-Ser1177,1182,1209Ala (3A), phosphorylated by Cdk1/2-cyclin A2 in vitro (natural protein)
chain: B1 chain

- binding result (His6-SUMO3-sororin): binds
B3: Flag-tagged Pds5b-Ser1161,1166,1177,1182,1209Ala (5A), untreated or exposed to Nek2a and Cdk1/2-cyclin A2 (natural protein)
chain: B1 chain with S1161A, S1166A
